Results: paper PMC11460708 (PLOS Pathogens, 2024)

What was measured:
XBB.1.5 RBD = molecular target: T1, XBB.1.5 RBD (SARS-CoV-2 Omicron XBB.1.5 (GISAID …, E484A (prototypic numbering) | F490S (prototypic numbering))); assay: SPR; conditions: both partners purified
T1 construct: not shown: His tag, C-terminal, kept

BA.1 RBD = molecular target: T2, BA.1 RBD (SARS-CoV-2 Omicron BA.1 (GISAID …, strain)); assay: SPR; conditions: both partners purified
T2 construct: not shown: His tag, C-terminal, kept

B1: Nanosota-3C (VHH)
VHH: QVQLQESGGGLVQAGGSLRLSCAASGSIFSPNTMGWFRQALGKQREGVAFISSIASTSYWLPVKGRFTITRDNTKNTVHLQMNSLIPEDTAVYYCYAVDKSQDYWGQGTQVTVSS
Binder B1 has a Kd (XBB.1.5 RBD) of 2.04 nM and a Kd (BA.1 RBD) of 27.3 nM.
